Results from article PMC6877594, “Atomic structure of the human herpesvirus 6B capsid and capsid-associated tegument complexes” (Nature Communications, 2019).
“And” between values parts separate entries of the source, which are not always exact repeats. Equal values may be shown once.

B1: tegument protein pU11 of human herpesvirus 6B (natural protein)
chain: MDLKAQSIPFAWLDRDKVQRLTNFLSNLENLENVDLREHPYVTNSCVVREGEDVDELKTLYNTFILWLMYHYVLSKRKPDYNAIWQDITKLQNVVNEYLKSKGLNKGNFENMFTNKEKFESQFSDIHRALLRLGNSIRWGSNVPIDTPYVNLTAEDSSEIENNLQDAEKNMLWYTVYNINDPWDENGYLVTSINKLVYLGKLFVTLNQSWSKLEKVAMSQIVTTQNHLSGHLRKNENFNAVYSQRVLQTPLTGQRVESFLKIITSDYEIIKSSLESYSASKAFSVPENGPHSLMDFASLDGRMPSDLSLPSISIDTKRPSADLARLKISQPKSLDAPLKTQRRHKFPESDSVDNAGGKILIKKETLGGRDVRATTPVSSVSLMSGVEPLSSLTSTNLDLRDKSHGNYRIGPSGILDFGVKLPAEAQSNTGDVDLLQDKTSIRSPSSGITDVVNGLANLNLRQNKSDVSRPWSKNTAANADVFDPVHRLVSEQTGTPFVLNNSDVAGSEAKLTTHSTETGVSPHNVSLIKDLRDKDGFRKQKKLDLLGSWTKEKNDKAIVHSREVTGDSGDATETVTARDSPVLRKTKHANDIFAGLNKKYARDVSRGGKGNSRDLYSGGNAEKKETSGKFNVDKEMTQNEQEPLPNLMEAARNAGEEQYVQAGLGQRVNKILAEFTNLISLGEKGIQDILHNQSGTELKLPTENKLGRESEEANVERILEVSDPQNLFKNFKLQNDLDSVQSPFRLPNADLSRDLDSVSFKDALDVKLPGNGEREIDLALQKVKAGERETSDFKVGQDETLIPTQLMKVETPEEKDDVIEKMVLRIRQDGETDEETVPGPGVAESLGIAAKDKSVIAS
notes: tegument protein pU11 of human herpesvirus 6B, strain Z29; 858 a.a. long; wild-type full-length protein inside the virion, only a.a; 7-275 (pU11nt) are resolved and modelled; also called pU11nt (the resolved N-terminal one-third, a.a. 7-275); pU11nt-a-1
B2: major capsid protein (MCP) of human herpesvirus 6B (natural protein)
chain: MENWQATEILPKIEAPLNIFNDIKTYTAEQLFDNLRIYFGDDPSRYNISFEALLGIYCNKIEWINFFTTPIAVAANVIRFNDVSRMTLGKVLFFIQLPRVATGNDVTAPKETTIMVAKHSEKHPINISFDLSAACLEHLENTFKNTVIDQILNINALHTVLRSLKNSADSLERGLIHAFMQTLLRKSPPQFIVLTMNENKVHNKQALSRVQRSNMFQSLKNRLLTSLFFLNRNNNSSYIYRILNDMMESVTESILNDTNNYTSKENIPLDGVLLGPIGSIQKLTNILSQYISTQVVSAPISYGHFIMGKENAVTAIAYRAIMADFTQFTVNAGTEQQDTNNKSEIFDKSRAYADLKLNTLKLGDKLVAFDHLHKVYKNTDVNDPLEQSLQLTFFFPLGIYIPTETGFSTMETRVKLNDTMENNLPTSVFFHNKDQVVQRIDFADILPSVCHPIVHDSTIVERLMKNEPLPTGHRFSQLCQLKITRENPTRILQTLYNLYESRQEVPKNTNVLKNELNVEDFYKPDNPTLPTERHPFFDLTYIQKNRATEVLCTPRIMIGNMPLPLAPISFHEARTNQMLEHAKTNSHNYDFTLKIVTESLTSGSYPELAYVIEILVHGNKHAFMILKQVISQCISYWFNMKHILLFCNSFEMIMLISNHMGDELIPGAAFAHYRNLVSLIRLVKRTISISNINEQLCGEPLVNFANALFDGRLFCPFVHTMPRNDTNAKITADDTPLTQNTVRVRNYEISDVQRMNLIDSSVVFTDNDRPSNENTILSKIFYFCVLPALSNNKACGAGVNVKELVLDLFYTEPFICPDDCFQENPISSDVLMSLIREAMGPGYTVANTSSIAKQLFKSLIYINENTKILEVEVSLDPAQRHGNSVHFQSLQHILYNGLCLISPITTLRRYYQPIPFHRFFSDPGICGTMNADIQVFLNTFPHYQRNDGGFPLPPPLALEFYNWQRTPFSVYSAFCPNSLLSIMTLAAMHSKLSPVAIAIQSKSKIHPGFAATLVRTDNFDVECLLYSSRAATSIILDDPTVTAEAKDIVTTYNFTQHLSFVDMGLGFSSTTATANLKRIKSDMGSKIQNLFSAFPIHAFTNTDINTWIRHHVGIEKPNPSEGEALNIITFGGINKNPPSILLHGQQAICEVILTPVTTNINFFKLPHNPRGRESCMMGTDPHNEEAARKALYDHTQTDSDTFAATTNPWASLPGSLGDILYNTAHREQLCYNPKTYSPNAQFFTESDILKTNKMMYKVINEYCMKSNSCLNSDSEIQYSCSEGTDSFVSRPCQFLQNALPLHCSSNQALLESRSKTGNTQISETHYCNYAIGETIPLQLIIESSI
notes: major capsid protein (MCP) of human herpesvirus 6B, strain Z29; 1345 amino acids long; domains described over a.a; 1-1345; Native protein in the virion capsid; 16 conformers (15 hexon, 1 penton) modelled in each asymmetric unit; also called penton MCP; hexon MCP
B3: smallest capsid protein (SCP) of human herpesvirus 6B, U32 gene product (natural protein)
chain: MTTIRGDDLSNQITQISGSSSKKEEEKKKQQMLTGVLGLQPTMANHPVLGVFLPKYAKQNGGNVDKTAFRLDLIRMLALHRLNTKTGSD
notes: smallest capsid protein (SCP), U32 gene product of human herpesvirus 6B, strain Z29; 89 residues long; the model covers residues 23-83, residues 1-22 are disordered; Native protein in the virion capsid; 16 conformers modelled in each asymmetric unit; also called penton SCP; hexon SCP
B4: triplex dimer protein (Tri2) of human herpesvirus 6B (natural protein)
chain: METVYCTFDHKLSLSDISTLCKLMNIVIPIPAHHHLIGSGNLGLYPIVSSNKDYVHIRNVLRTMVVTILQKVEGNQLVLRKPMTGQQYAIKNTGPFPWEKGDTLTLIPPLSTHSEEKLLKLGDWELTVPLVVPTAIAAEINIRLLCIGLIAVHREYNEMQTIIDELCSIQYRDVLIKLPDIVNDKQSMYSMKTACISLSMITAMAPDIVRTYIDRLTLEDHSMLLIKCQELLSKRTTLSTQRCGQLHATDIKDELKKIKSVLTMIDQINSLTNEKTYFVVCDVSADNRMATCIYKN
notes: triplex dimer protein (Tri2) of human herpesvirus 6B, strain Z29; domains clamp (a.a. 1-86), trunk (a.a. 87-181 and 276-296), embracing arm (a.a. 182-275); Native protein in the virion capsid; two conformers (Tri2A, Tri2B) of the same protein in each triplex; also called Tri2A; Tri2B

Assays:
[1] = target: the molecule itself; test: cryo-EM structure; in situ in HHV-6B (Z29) virions pelleted from SupT1 culture supernatant and resuspended in PBS; icosahedral reconstruction ~5.1 Å, sub-particle reconstructions at the fivefold, threefold and twofold axes at 3.82, 3.77 and 3.77 Å; atomic models of 59 conformers
[2] = target: B2; test: as above; conditions: partners not purified

| Binder | stoichiometry N [1] | stoichiometry N [2] |
| --- | --- | --- |
| B1 | 4 |  |
| B2 | 5 and 6 |  |
| B3 |  | 1 |
| B4 | 2 |  |
